Results: paper PMC4877568, “Structure-based site-directed photo-crosslinking analyses of multimeric cell-adhesive interactions of voltage-gated sodium channel β subunits” (Scientific Reports, 2016)

Target: the molecule itself
Test: crystal structure; X-ray crystallography of β4ex; antiparallel contacts between β4ex molecules in the crystal lattice; crystals from 30% (w/v) PEG 1500, sitting drop, 20 °C

B1: mouse β4 subunit extracellular domain fragment (domain or fragment, UniProt Q7M729 30-160, looked up)
chain: SLEVSVGKATTIYAINGSSILLPCTFSSCYGFENLYFKWSYNNSETSRILIDGIVKNDKSDPKVRVKDDDRITLEGSTKEKTNNISILLSDLEFSDTGRYTCFVRNPKEKDLNNSATIFLQVVDKLEKVDN
notes: voltage-gated sodium channel β4 subunit, mouse, residues 30-160; amino acid numbering starts from the initiator methionine; His tag removed by TEV protease; contains all three Cys residues; also called β4ex; β4 extracellular domain; source: Escherichia coli cell-free method, purified (HisTrap, TEV cleavage, Mono Q, Superdex 75); not shown: histidine tag, N-terminal, cleaved
B1: binds.
